Reference: paper PMC2765437

Legend:
[1] = system: M-pol (MuLV RT polymerase domain) (MuLV); assay: EMSA; conditions: 50 mM Tris-HCl pH 7.8, 60 mM KCl, 1 mM DTT, 0.01% NP40, 10% glycerol; 5 nM labeled template-primer, 10 uL; 6% native gel in Tris-borate pH 8.2 run at 4 C …
[2] = system: chimeric HIV-1 RT (HIV-1 RT polymerase domain + MuLV RT RNase H domain) (HIV-1 / MuLV chimera); assay: EMSA; conditions: 50 mM Tris-HCl pH 7.8, 60 mM KCl, 1 mM DTT, 0.01% NP40, 10% glycerol; 5 nM labeled template-primer, 10 uL; 6% native gel in Tris-borate pH 8.2 run at 4 C …
[3] = system: chimeric MuLV RT (MHCI RT; MuLV RT polymerase domain + HIV-1 RT RNase H domain) (MuLV / HIV-1 chimera); assay: EMSA; conditions: 50 mM Tris-HCl pH 7.8, 60 mM KCl, 1 mM DTT, 0.01% NP40, 10% glycerol; 5 nM labeled template-primer, 10 uL; 6% native gel in Tris-borate pH 8.2 run at 4 C …
[4] = system: wild-type HIV-1 RT (p66/66) (HIV-1); assay: EMSA; conditions: 50 mM Tris-HCl pH 7.8, 60 mM KCl, 1 mM DTT, 0.01% NP40, 10% glycerol; 5 nM labeled template-primer, 10 uL; 6% native gel in Tris-borate pH 8.2 run at 4 C …
wild-type MuLV RT (MuLV) = assay: EMSA; conditions: 50 mM Tris-HCl pH 7.8, 60 mM KCl, 1 mM DTT, 0.01% NP40, 10% glycerol; 5 nM labeled template-primer, 10 uL; 6% native gel in Tris-borate pH 8.2 run at 4 C …
[5] = target: wild-type p66/66 HIV-1 RT (human immunodeficiency virus type 1 reverse transcriptase) (human immunodeficiency virus type 1); assay: glycerol gradient ultracentrifugation; 50 micrograms of each enzyme alone on 5 ml of 10%-30% linear glycerol gradient in 50 mM Tris HCl pH 8.0, 400 mM NaCl; 48,000 rpm, 20-24 h, SW 50.1 rotor; fractions from the bottom analysed by SDS-PAGE and Coomassie blue

| Substance | Kd [1] [nM] | Kd [2] [nM] | Kd [3] [nM] | Kd [4] [nM] | Kd (wild-type MuLV RT (MuLV)) [nM] | stoichiometry N [5] |
| --- | --- | --- | --- | --- | --- | --- |
| 49-mer DNA template / 17-mer PBS DNA primer | 1.2 | 1.5 | 3.3 | 3.2 | 2.7 |  |
| wild-type p66/66 HIV-1 RT (human immunodeficiency virus type 1 reverse transcriptase) (enzyme) |  |  |  |  |  | 2 |
